Values of other authors as cited in US20200069786A1, “COMPOSITION AND PROCESS FOR PREPARING VACCINE” (TREOS BIO ZRT., priority 2018, published 2020).
Where two headings read alike, the source gives them in different places.

Tested on: TSA
[1] = TSA expression rate in BLADDER cancer
[2] = TSA expression rate in Esophageal
[3] = TSA expression rate in HEAD and NECK
[4] = TSA expression rate in MELANOMA
[5] = TSA expression rate in PROSTATE cancer
[6] = TSA expression rate in Cervical cancer
[7] = TSA expression rate in LUNG cancer
[8] = TSA expression rate in GASTRIC cancer

Row | Molecule | TSA Expression Rate (ER) (BRAIN) [%] | TSA Expression Rate (ER) (BREAST) [%] | TSA Expression Rate (ER) (LUNG) [%] | TSA Expression Rate (ER) (THYROID) [%] | Expression Rate (ER) % [1] [%] | Expression Rate (ER) % (TSA expression rate in CRC) [%] | Expression Rate (ER) % [2] [%] | Expression Rate (ER) % [3] [%] | Expression Rate (ER) % (TSA expression rate in Kidney) [%] | Expression Rate (ER) % [4] [%] | Expression Rate (ER) % [5] [%] | TSA Expression Rate (ER) (HCC) [%] | TSA Expression Rate (ER) (OVARIAN) [%] | Expression Rate (ER) % [6] [%] | Expression Rate (ER) % [7] [%] | Expression Rate (ER) % [8] [%]
1 | MAGE-B6 (protein, UniProt Q8N7X4 1-407, looked up) Melanoma-associated antigen B6: MPRGHKSKLRTCEKRQETNGQPQGLTGPQATAEKQEESHSSSSSSRACLGDCRRSSDASIPQESQGVSPTGSPDAVVSYSKSDVAANGQDEKSPSTSRDASVPQESQGASPTGSPDAGVSGSKYDVAANGQDEKSPSTSHDVSVPQESQGASPTGSPDAGVSGSKYDVAAEGEDEESVSASQKAIIFKRLSKDAVKKKACTLAQFLQKKFEKKESILKADMLKCVRREYKPYFPQILNRTSQHLVVAFGVELKEMDSSGESYTLVSKLGLPSEGILSGDNALPKSGLLMSLLVVIFMNGNCATEEEVWEFLGLLGIYDGILHSIYGDARKIITEDLVQDKYVVYRQVCNSDPPCYEFLWGPRAYAETTKMRVLRVLADSSNTSPGLYPHLYEDALIDEVERALRLRA | 6 |  |  |  |  |  |  |  |  |  |  |  |  |  |  | 
2 | HAGE (protein, UniProt Q9NXZ2 1-648, looked up) Probable ATP-dependent RNA …: MSHHGGAPKASTWVVASRRSSTVSRAPERRPAEELNRTGPEGYSVGRGGRWRGTSRPPEAVAAGHEELPLCFALKSHFVGAVIGRGGSKIKNIQSTTNTTIQIIQEQPESLVKIFGSKAMQTKAKAVIDNFVKKLEENYNSECGIDTAFQPSVGKDGSTDNNVVAGDRPLIDWDQIREEGLKWQKTKWADLPPIKKNFYKESTATSAMSKVEADSWRKENFNITWDDLKDGEKRPIPNPTCTFDDAFQCYPEVMENIKKAGFQKPTPIQSQAWPIVLQGIDLIGVAQTGTGKTLCYLMPGFIHLVLQPSLKGQRNRPGMLVLTPTRELALQVEGECCKYSYKGLRSVCVYGGGNRDEQIEELKKGVDIIIATPGRLNDLQMSNFVNLKNITYLVLDEADKMLDMGFEPQIMKILLDVRPDRQTVMTSATWPHSVHRLAQSYLKEPMIVYVGTLDLVAVSSVKQNIIVTTEEEKWSHMQTFLQSMSSTDKVIVFVSRKAVADHLSSDLILGNISVESLHGDREQRDREKALENFKTGKVRILIATDLASRGLDVHDVTHVYNFDFPRNIEEYVHRIGRTGRAGRTGVSITTLTRNDWRVASELINILERANQSIPEELVSMAERFKAHQQKREMERKMERPQGRPKKFH | 38 | 14 | 32 | 20 | 24 | 15 | 27 | 20 | 6 | 17 | 22 |  |  |  |  | 
3 | SP17 (protein, UniProt Q15506 1-151, looked up) Sperm surface protein Sp17: MSIPFSNTHYRIPQGFGNLLEGLTREILREQPDNIPAFAAAYFESLLEKREKTNFDPAEWGSKVEDRFYNNHAFEEQEPPEKSDPKQEESQISGKEEETSVTILDSSEEDKEKEEVAAVKIQAAFRGHIAREEAKKMKTNSLQNEEKEENK | 13 | 47 |  | 10 |  |  | 81 |  |  |  | 10 | 87 | 62 | 61 | 12 | 
4 | FAM46D (protein, UniProt Q8NEK8 1-389, looked up) Terminal …: MSEIRFTNLTWDQVITLDQVLDEVIPIHGKGNFPTMEVKPKDIIHVVKDQLIGQGIIVKDARLNGSVASYILASHNGISYKDLDVIFGVELPGNEEFQVVKDAVLDCLLDFLPKDVKKEKLSPDIMKDAYVQKLVKVCNGHDCWSLISLSNNTGKNLELKFVSSLRRQFEFSVDSFQIVLDPMLDFYSDKNAKLTKESYPVVVAESMYGDFQEAMTHLQHKLICTRKPEEIRGGGLLKYCSLLVHGFKPACMSEIKNLERYMCSRFFIDFPHIEEQQKKIESYLHNHFIGEGMTKYDYLMTLHGVVNESTVCLMSYERRQILHLITMMALKVLGELNILPNTQKVTCFYQPAPYFAAEARYPIYVIPEPPPVSFQPYHPLHFRGSNGMS | 8 |  | 50 | 8 |  | 22 |  |  |  | 28 | 33 |  |  | 37 |  | 11
5 | MAGE-A11 (protein, UniProt P43364 1-429, looked up) Melanoma-associated antigen 11: METQFRRGGLGCSPASIKRKKKREDSGDFGLQVSTMFSEDDFQSTERAPYGPQLQWSQDLPRVQVFREQANLEDRSPRRTQRITGGEQVLWGPITQIFPTVRPADLTRVIMPLEQRSQHCKPEEGLQAQEEDLGLVGAQALQAEEQEAAFFSSTLNVGTLEELPAAESPSPPQSPQEESFSPTAMDAIFGSLSDEGSGSQEKEGPSTSPDLIDPESFSQDILHDKIIDLVHLLLRKYRVKGLITKAEMLGSVIKNYEDYFPEIFREASVCMQLLFGIDVKEVDPTSHSYVLVTSLNLSYDGIQCNEQSMPKSGLLIIVLGVIFMEGNCIPEEVMWEVLSIMGVYAGREHFLFGEPKRLLTQNWVQEKYLVYRQVPGTDPACYEFLWGPRAHAETSKMKVLEYIANANGRDPTSYPSLYEDALREEGEGV |  | 59 |  |  |  |  |  | 37 |  | 54 |  | 36 |  |  |  | 
6 | ACTL8 (protein, UniProt Q9H568 1-366, looked up) Actin-like protein 8: MAARTVIIDHGSGFLKAGTAGWNEPQMVFPNIVNYLPCKENPGPSYARRRVSLGIDICHPDTFSYPIERGRILNWEGVQYLWSFVLENHRREQEVPPVIITETPLREPADRKKMLEILFELLHVPSVLLADQLQMSLYASGLLTGVVVDSGYGLTRVQPFHQGRPLPASGKTLEFAGQDLSAYLLKSLFKEDCDRRCLFQLETVAVTQMNKCYVPQNLGEALDFRERQQSALDESNTYQLPDGSRVELTPMQRVAPEMFFSPQVFEQPGPSIPRAIVESVESCEISLRPLLVSHVMACGGNTLYPGFTKRLFRELMGDHVSSTKATVWEGSNRNFSVWLGASVVAHLSTYQSEWMSREEYGEHMRM | 54 |  |  |  |  |  |  |  |  |  |  |  |  |  |  | 
7 | PASD1 (protein, UniProt Q8IV76 1-773, looked up) Circadian clock protein PASD1: MKMRGEKRRDKVNPKSSQRKLNWIPSFPTYDYFNQVTLQLLDGFMITLSTDGVIICVAENISSLLGHLPAEIVGKKLLSLLPDEEKDEVYQKIILKFPLLNSETHIEFCCHLKRGNVEHGDSSAYENVKFIVNVRDICNEFPVVFSGLFSSHLCADFAACVPQEDRLYLVGNVCILRTQLLQQLYTSKAVSDEAVLTQDSDEEPFVGELSSSQGQRGHTSMKAVYVEPAAAAAAAAISDDQIDIAEVEQYGPQENVHMFVDSDSTYCSSTVFLDTMPESPALSLQDFRGEPEVNPLYRADPVDLEFSVDQVDSVDQEGPMDQQDPENPVAPLDQAGLMDPVDPEDSVDLGAAGASAQPLQPSSPVAYDIISQELELMKKLKEQLEERTWLLHDAIQNQQNALELMMDHLQKQPNTLRHVVIPDLQSSEAVPKKQQKQHAGQVKRPLPHPKDVKCFCGLSLSNSLKNTGELQEPCVAFNQQQLVQQEQHLKEQQRQLREQLQQLREQRKVQKQKKMQEKKKLQEQKMQEKKKLQEQRRQKKKKLQERKKWQGQMLQKEPEEEQQKQQLQEQPLKHNVIVGNERVQICLQNPRDVSVPLCNHPVRFLQAQPIVPVQRAAEQQPSGFYQDENCGQQEDESQSFYPEAYQGPPVNQLPLIDTSNSEAISSSSIPQFPITSDSTISTLETPQDYIRLWQELSDSLGPVVQVNTWSCDEQGTLHGQPTYHQVQVSEVGVEGPPDPQAFQGPAAYQPDQMRSAEQTRLMPAEQRDSNKPC | 31 |  | 29 | 25 |  | 44 |  |  |  | 44 | 29 |  |  | 58 |  | 44
8 | SLCO6A1 (protein, UniProt Q86UG4 1-719, looked up) Solute carrier organic anion …: MFVGVARHSGSQDEVSRGVEPLEAARAQPAKDRRAKGTPKSSKPGKKHRYLRLLPEALIRFGGFRKRKKAKSSVSKKPGEVDDSLEQPCGLGCLVSTCCECCNNIRCFMIFYCILLICQGVVFGLIDVSIGDFQKEYQLKTIEKLALEKSYDISSGLVAIFIAFYGDRKKVIWFVASSFLIGLGSLLCAFPSINEENKQSKVGIEDICEEIKVVSGCQSSGISFQSKYLSFFILGQTVQGIAGMPLYILGITFIDENVATHSAGIYLGIAECTSMIGYALGYVLGAPLVKVPENTTSATNTTVNNGSPEWLWTWWINFLFAAVVAWCTLIPLSCFPNNMPGSTRIKARKRKQLHFFDSRLKDLKLGTNIKDLCAALWILMKNPVLICLALSKATEYLVIIGASEFLPIYLENQFILTPTVATTLAGLVLIPGGALGQLLGGVIVSTLEMSCKALMRFIMVTSVISLILLVFIIFVRCNPVQFAGINEDYDGTGKLGNLTAPCNEKCRCSSSIYSSICGRDDIEYFSPCFAGCTYSKAQNQKKMYYNCSCIKEGLITADAEGDFIDARPGKCDAKCYKLPLFIAFIFSTLIFSGFSGVPIVLAMTRVVPDKLRSLALGVSYVILRIFGTIPGPSIFKMSGETSCILRDVNKCGHTGRCWIYNKTKMAFLLVGICFLCKLCTIIFTTIAFFIYKRRLNENTDFPDVTVKNPKVKKKEETDL | 19 | 7 |  |  |  |  | 33 |  |  |  |  |  |  |  | 7 | 
9 | NXF2 (protein, UniProt Q9GZY0 1-626, looked up) Nuclear RNA export factor 2: MCSTLKKCGTYRTEVAECHDHGSTFQGRKKGGSSFRDNFDKRSCHYEHGGYERPPSHCQENDGSVEMRDVHKDQQLRHTPYSIRCERRMKWHSEDEIRITTWRNRKPPERKMSQNTQDGYTRNWFKVTIPYGIKYDKAWLMNSIQSHCSDRFTPVDFHYVRNRACFFVQDASAASALKDVSYKIYDDENQKICIFVNHSTAPYSVKNKLKPGQMEMLKLTMNKRYNVSQQALDLQNLRFDPDLMGRDIDIILNRRNCMAATLKIIERNFPELLSLNLCNNKLYQLDGLSDITEKAPKVKTLNLSKNKLESAWELGKVKGLKLEELWLEGNPLCSTFSDQSAYVSAIRDCFPKLLRLDGRELSAPVIVDIDSSETMKPCKENFTGSETLKHLVLQFLQQYYSIYDSGDRQGLLGAYHDEACFSLAIPFDPKDSAPSSLCKYFEDSRNMKTLKDPYLKGELLRRTKRDIVDSLSALPKTQHDLSSILVDVWCQTERMLCFSVNGVFKEVEGQSQGSVLAFTRTFIATPGSSSSLCIVNDELFVRDASPQETQSAFSIPVSTLSSSSEPSLSQEQQEMVQAFSAQSGMKLEWSQKCLQDNEWNYTRAGQAFTMLQTEGKIPAEAFKQIS | 18 | 2 |  | 20 | 19 | 9 | 17 | 5 | 0 | 8 | 14 |  |  |  | 15 | 6
10 | GAGE-1 (protein, UniProt P0DTW1 1-117, looked up) G antigen 1: MSWRGRSTYYWPRPRRYVQPPEMIGPMRPEQFSDEVEPATPEEGEPATQRQDPAAAQEGEDEGASAGQGPKPEADSQEQGHPQTGCECEDGPDGQEMDPPNPEEVKTPEEGEGQSQC | 42 |  |  |  |  |  |  | 39 |  |  |  |  |  |  |  | 
